Results from patent US20120172293A1 (Takeda / Millennium, published 2012).
Non-standard residues stand in square brackets, D forms with d. *: point of attachment. X10 = Tetrahydro‑2H‑pyran‑4‑yl‑carbamoyl, O=C(NC1CCOCC1)*; tBuAla = CC(C)(C)C[C@H](N)C(=O)O; Cha = N[C@@H](CC1CCCCC1)C(=O)O; Aib = CC(C)(N)C(=O)O

T1: human Y2 receptor (human, UniProt P49146 1-381)
T1 sequence (looked up): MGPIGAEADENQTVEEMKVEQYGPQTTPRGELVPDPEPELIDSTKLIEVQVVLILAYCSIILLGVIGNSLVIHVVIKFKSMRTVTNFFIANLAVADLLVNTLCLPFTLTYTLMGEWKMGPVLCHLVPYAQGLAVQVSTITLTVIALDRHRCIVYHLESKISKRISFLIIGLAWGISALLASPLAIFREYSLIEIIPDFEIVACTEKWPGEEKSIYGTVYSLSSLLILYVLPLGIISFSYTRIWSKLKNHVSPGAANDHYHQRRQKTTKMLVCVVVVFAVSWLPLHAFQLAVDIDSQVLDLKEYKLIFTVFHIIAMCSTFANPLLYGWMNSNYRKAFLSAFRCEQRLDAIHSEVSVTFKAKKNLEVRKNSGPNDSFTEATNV

B1: Tetrahydro-2H-pyran-4-yl-carbamoyl-[D-Pro24, Cha27,36, Leu(Me)28, Lys30, Aib31]-PYY(23-36) (peptide)
peptide: X10-S[dP]RH[Cha][tBuAla]NK[Aib]TRQR[Cha]-NH2
SMILES: C[C@@H](O)[C@H](NC(=O)C(C)(C)NC(=O)[C@H](CCCCN)NC(=O)[C@H](CC(N)=O)NC(=O)[C@H](CC(C)(C)C)NC(=O)[C@H](CC1CCCCC1)NC(=O)[C@H](Cc1c[nH]cn1)NC(=O)[C@H](CCCNC(=N)N)NC(=O)[C@H]1CCCN1C(=O)[C@H](CO)NC(=O)NC1CCOCC1)C(=O)N[C@@H](CCCNC(=N)N)C(=O)N[C@@H](CCC(N)=O)C(=O)N[C@@H](CCCNC(=N)N)C(=O)N[C@@H](CC1CCCCC1)C(N)=O
notes: also called compound No. 229
B2: Ac-[D-Pro24, Cha27,28, Aib31, DL-Phe(2,6-Me2)36]-PYY(23-36) (peptide)
peptide: Ac-S[dP]RH[Cha][Cha]NL[Aib]TRQRX-NH2
modifications: not fully specified (residue 14); printed as Ac-Ser-D-Pro-Arg-His-Cha-Cha-Asn-Leu-Aib-Thr-Arg-Gln-Arg-DL-Phe(2,6-Me2)-NH2; also: residue 36 is DL racemic
notes: residue 36 is a DL racemate; also called compound No. 201
B3: Ac-[D-Pro24, Gln26, Cha27,36, Aib28,31, Lys30]-PYY(23-36) (peptide)
peptide: Ac-S[dP]RQ[Cha][Aib]NK[Aib]TRQR[Cha]-NH2
SMILES: CC(=O)N[C@@H](CO)C(=O)N1CCC[C@@H]1C(=O)N[C@@H](CCCNC(=N)N)C(=O)N[C@@H](CCC(N)=O)C(=O)N[C@@H](CC1CCCCC1)C(=O)NC(C)(C)C(=O)N[C@@H](CC(N)=O)C(=O)N[C@@H](CCCCN)C(=O)NC(C)(C)C(=O)N[C@H](C(=O)N[C@@H](CCCNC(=N)N)C(=O)N[C@@H](CCC(N)=O)C(=O)N[C@@H](CCCNC(=N)N)C(=O)N[C@@H](CC1CCCCC1)C(N)=O)[C@@H](C)O
notes: also called compound No. 221
B4: Ac-[D-Pro24, Phe26, Cha27,36, Aib28,31, Lys30]-PYY(23-36) (peptide)
peptide: Ac-S[dP]RF[Cha][Aib]NK[Aib]TRQR[Cha]-NH2
SMILES: CC(=O)N[C@@H](CO)C(=O)N1CCC[C@@H]1C(=O)N[C@@H](CCCNC(=N)N)C(=O)N[C@@H](Cc1ccccc1)C(=O)N[C@@H](CC1CCCCC1)C(=O)NC(C)(C)C(=O)N[C@@H](CC(N)=O)C(=O)N[C@@H](CCCCN)C(=O)NC(C)(C)C(=O)N[C@H](C(=O)N[C@@H](CCCNC(=N)N)C(=O)N[C@@H](CCC(N)=O)C(=O)N[C@@H](CCCNC(=N)N)C(=O)N[C@@H](CC1CCCCC1)C(N)=O)[C@@H](C)O
notes: also called compound No. 345
B5: Ac-[D-Pro24, Trp26, Cha27,36, Aib28,31, Lys30]-PYY(23-36) (peptide)
peptide: Ac-S[dP]RW[Cha][Aib]NK[Aib]TRQR[Cha]-NH2
SMILES: CC(=O)N[C@@H](CO)C(=O)N1CCC[C@@H]1C(=O)N[C@@H](CCCNC(=N)N)C(=O)N[C@@H](Cc1c[nH]c2ccccc12)C(=O)N[C@@H](CC1CCCCC1)C(=O)NC(C)(C)C(=O)N[C@@H](CC(N)=O)C(=O)N[C@@H](CCCCN)C(=O)NC(C)(C)C(=O)N[C@H](C(=O)N[C@@H](CCCNC(=N)N)C(=O)N[C@@H](CCC(N)=O)C(=O)N[C@@H](CCCNC(=N)N)C(=O)N[C@@H](CC1CCCCC1)C(N)=O)[C@@H](C)O
notes: also called compound No. 347
B6: Ac-[D-Pro24, Tyr26, Cha27,36, Aib28,31, Lys30]-PYY(23-36) (peptide)
peptide: Ac-S[dP]RY[Cha][Aib]NK[Aib]TRQR[Cha]-NH2
SMILES: CC(=O)N[C@@H](CO)C(=O)N1CCC[C@@H]1C(=O)N[C@@H](CCCNC(=N)N)C(=O)N[C@@H](Cc1ccc(O)cc1)C(=O)N[C@@H](CC1CCCCC1)C(=O)NC(C)(C)C(=O)N[C@@H](CC(N)=O)C(=O)N[C@@H](CCCCN)C(=O)NC(C)(C)C(=O)N[C@H](C(=O)N[C@@H](CCCNC(=N)N)C(=O)N[C@@H](CCC(N)=O)C(=O)N[C@@H](CCCNC(=N)N)C(=O)N[C@@H](CC1CCCCC1)C(N)=O)[C@@H](C)O
notes: also called compound No. 346

These binders were tested against T1, human Y2 receptor (assay: cell-based or functional assay).

Binder	GBA EC50 Ratio ([35S]GTPγS binding)
B1	0.5 EC50 compound/EC50 PYY(3-36)
B2	2 EC50 compound/EC50 PYY(3-36)
B3	1.4 EC50 compound/EC50 PYY(3-36)
B4	1.4 EC50 compound/EC50 PYY(3-36)
B5	1.3 EC50 compound/EC50 PYY(3-36)
B6	1.3 EC50 compound/EC50 PYY(3-36)

The binders below were run against T1, human Y2 receptor (assay: RBA: displacement of [125I]-PYY from hY2R/CHO membranes).
Procedure: After incubation at room temperature for 60 minutes, the mixture was filtered through the cell harvester FilterMate (PerkinElmer) using UniFilter-96 GF/C treated with polyethylenimine (PEI) solution (20 mM Tris, 0.3% PEI, pH 7.4), and the filter was washed 3 times with a filtering buffer (50 mM Tris, 5 mM MgCl₂, 150 mM NaCl, 0.03% NaN₃, 0.05% CHAPS, pH 7.4). Thereafter, UniFilter-96 GF/C was dried in a mechanical drier for 1 hour, 15 μl of the liquid scintillator MicroScint O (PerkinElmer) was added to each well, and a measurement was taken using TopCount (PerkinElmer). The data obtained were analyzed using Prism to calculate the IC₅₀ value.

Binder	IC50 Ratio
B1	0.45 IC50 compound/IC50 PYY(3-36)
B2	1.6 IC50 compound/IC50 PYY(3-36)
B3	3.1 IC50 compound/IC50 PYY(3-36)
B4	1.1 IC50 compound/IC50 PYY(3-36)
B5	0.76 IC50 compound/IC50 PYY(3-36)
B6	1 IC50 compound/IC50 PYY(3-36)
